Results reported in US12467929.

What was measured:
[1] = molecular target: recombinant UBE3A protein (Homo sapiens (Human)) (UniProt Q05086); experiment: 2-step Simoa; capture GTX; UBE3A 0.1 ng/ml
[2] = molecular target: recombinant UBE3A protein (Homo sapiens (Human)) (UniProt Q05086); experiment: 3-step Simoa; capture MS 3E5; UBE3A 1 ng/ml
[3] = molecular target: recombinant UBE3A protein (Homo sapiens (Human)) (UniProt Q05086); experiment: 3-step Simoa; capture MS 3E5; UBE3A 0.01 ng/ml
[4] = molecular target: recombinant UBE3A protein (Homo sapiens (Human)) (UniProt Q05086); experiment: 2-step Simoa; capture MS 3E5; UBE3A 0.01 ng/ml
[5] = molecular target: recombinant UBE3A protein (Homo sapiens (Human)) (UniProt Q05086); experiment: 3-step Simoa; capture MS 3E5; UBE3A 10 ng/ml
[6] = molecular target: recombinant UBE3A protein (Homo sapiens (Human)) (UniProt Q05086); experiment: 2-step Simoa; capture MS 3E5; UBE3A 1 ng/ml
[7] = molecular target: recombinant UBE3A protein (Homo sapiens (Human)) (UniProt Q05086); experiment: 2-step Simoa; capture MS 3E5; UBE3A 10 ng/ml
[8] = molecular target: recombinant UBE3A protein (Homo sapiens (Human)) (UniProt Q05086); experiment: 2-step Simoa; capture MS 3E5; UBE3A 0.1 ng/ml
[9] = molecular target: recombinant UBE3A protein (Homo sapiens (Human)) (UniProt Q05086); experiment: 3-step Simoa; capture MS 2F6; UBE3A 0.01 ng/ml
[10] = molecular target: recombinant UBE3A protein (Homo sapiens (Human)) (UniProt Q05086); experiment: 3-step Simoa; capture MS 3E5; UBE3A 0.1 ng/ml
[11] = molecular target: recombinant UBE3A protein (Homo sapiens (Human)) (UniProt Q05086); experiment: Simoa head-to-head, Table 10; capture GTX; UBE3A 0.80 ng/ml
[12] = molecular target: recombinant UBE3A protein (Homo sapiens (Human)) (UniProt Q05086); experiment: Simoa head-to-head, Table 10; capture GTX; UBE3A 0.032 ng/ml
[13] = molecular target: recombinant UBE3A protein (Homo sapiens (Human)) (UniProt Q05086); experiment: Simoa head-to-head, Table 10; capture GTX; UBE3A 20.0 ng/ml
[14] = molecular target: recombinant UBE3A protein (Homo sapiens (Human)) (UniProt Q05086); experiment: Simoa head-to-head, Table 10; capture GTX; UBE3A 4.00 ng/ml
[15] = molecular target: recombinant UBE3A protein (Homo sapiens (Human)) (UniProt Q05086); experiment: Simoa head-to-head, Table 10; capture GTX; UBE3A 100 ng/ml
[16] = molecular target: recombinant UBE3A protein (Homo sapiens (Human)) (UniProt Q05086); experiment: Simoa head-to-head, Table 10; capture GTX; UBE3A 0.16 ng/ml
[17] = molecular target: recombinant UBE3A protein (Homo sapiens (Human)) (UniProt Q05086); experiment: Simoa; capture GTX; SBG 100 pm; UBE3A 0.00128 ng/ml
[18] = molecular target: recombinant UBE3A protein (Homo sapiens (Human)) (UniProt Q05086); experiment: Simoa head-to-head, Table 10; capture MS 2F6; UBE3A 20.0 ng/ml
[19] = molecular target: recombinant UBE3A protein (Homo sapiens (Human)) (UniProt Q05086); experiment: Simoa; capture GTX + helper beads; 3E5 0.2 ug/ml; UBE3A 0.00128 ng/ml
[20] = molecular target: recombinant UBE3A protein (Homo sapiens (Human)) (UniProt Q05086); experiment: Simoa; capture GTX, no helper beads; 3E5 0.1 ug/ml; UBE3A 0.160 ng/ml
[21] = molecular target: recombinant UBE3A protein (Homo sapiens (Human)) (UniProt Q05086); experiment: Simoa; capture GTX + helper beads; 3E5 0.1 ug/ml; UBE3A 0.800 ng/ml
[22] = molecular target: recombinant UBE3A protein (Homo sapiens (Human)) (UniProt Q05086); experiment: Simoa; capture GTX + helper beads; 3E5 0.4 ug/ml; UBE3A 0.00128 ng/ml

Chain of UniProt Q05086 (Q05086 whole entry): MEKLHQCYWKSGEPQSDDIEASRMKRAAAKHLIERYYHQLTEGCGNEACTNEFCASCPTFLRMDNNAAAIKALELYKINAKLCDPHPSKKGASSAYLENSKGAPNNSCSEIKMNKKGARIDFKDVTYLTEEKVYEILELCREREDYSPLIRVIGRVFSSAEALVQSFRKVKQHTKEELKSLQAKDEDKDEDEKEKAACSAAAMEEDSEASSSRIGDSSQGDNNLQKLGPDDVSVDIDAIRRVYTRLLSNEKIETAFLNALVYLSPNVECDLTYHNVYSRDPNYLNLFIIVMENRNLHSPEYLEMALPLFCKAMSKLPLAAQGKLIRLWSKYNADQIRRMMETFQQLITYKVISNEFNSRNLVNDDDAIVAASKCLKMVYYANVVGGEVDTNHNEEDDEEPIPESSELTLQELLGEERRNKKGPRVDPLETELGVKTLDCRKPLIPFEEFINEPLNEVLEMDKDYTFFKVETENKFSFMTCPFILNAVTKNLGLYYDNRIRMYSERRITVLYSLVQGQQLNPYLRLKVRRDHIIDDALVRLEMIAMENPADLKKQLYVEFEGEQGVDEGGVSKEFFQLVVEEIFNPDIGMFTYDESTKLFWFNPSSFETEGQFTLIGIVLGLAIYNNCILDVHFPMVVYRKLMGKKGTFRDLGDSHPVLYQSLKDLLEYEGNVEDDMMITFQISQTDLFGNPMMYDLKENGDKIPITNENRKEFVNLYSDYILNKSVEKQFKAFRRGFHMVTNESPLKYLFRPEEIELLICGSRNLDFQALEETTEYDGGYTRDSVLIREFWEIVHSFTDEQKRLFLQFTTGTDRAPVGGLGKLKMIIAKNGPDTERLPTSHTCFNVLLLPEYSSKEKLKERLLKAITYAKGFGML

Substance: GTX101092 (GeneTex) (antibody)
- AEB1 [1]: 0.0525
- AEB2 [1]: 0.0487
- Ave AEB [1]: 0.0506
- Signal to Background [1]: 1
- AEB1 [2]: 0.0655
- AEB2 [2]: 0.0625
- Ave AEB [2]: 0.064
- Signal to Background [2]: 1.19
- AEB1 [3]: 0.0515
- AEB2 [3]: 0.05
- Ave AEB [3]: 0.0508
- Signal to Background [3]: 0.946
- AEB1 [4]: 0.129
- AEB2 [4]: 0.134
- Ave AEB [4]: 0.132
- Signal to Background [4]: 0.931
- AEB1 [5]: 0.151
- AEB2 [5]: 0.145
- Ave AEB [5]: 0.148
- Signal to Background [5]: 2.77
- AEB1 [6]: 0.159
- AEB2 [6]: 0.165
- Ave AEB [6]: 0.162
- Signal to Background [6]: 1.15
- AEB1 [7]: 0.407
- AEB2 [7]: 0.385
- Ave AEB [7]: 0.396
- Signal to Background [7]: 2.8
- AEB1 [8]: 0.161
- AEB2 [8]: 0.149
- Ave AEB [8]: 0.155
- Signal to Background [8]: 1.1
- AEB1 [9]: 0.0162
- AEB2 [9]: 0.0191
- Ave AEB [9]: 0.0176
- Signal to Background [9]: 0.94
- AEB1 [10]: 0.0546
- AEB2 [10]: 0.06
- Ave AEB [10]: 0.0573
- Signal to Background [10]: 1.07

Substance: NB500-240 (Novus) (antibody)
- AEB1 [1]: 0.0089
- AEB2 [1]: 0.0108
- Ave AEB [1]: 0.0098
- Signal to Background [1]: 1.33
- AEB1 [2]: 0.004
- AEB2 [2]: 0.0047
- Ave AEB [2]: 0.0044
- Signal to Background [2]: 1.31
- AEB1 [11]: 0.0085
- AEB2 [11]: 0.0124
- Ave AEB [11]: 0.0105
- Signal to Background [11]: 5.03
- AEB1 [3]: 0.0038
- AEB2 [3]: 0.0032
- Ave AEB [3]: 0.0035
- Signal to Background [3]: 1.05
- AEB1 [12]: 0.0035
- AEB2 [12]: 0.0027
- Ave AEB [12]: 0.0031
- Signal to Background [12]: 1.49
- AEB1 [4]: 0.0065
- AEB2 [4]: 0.007
- Ave AEB [4]: 0.0068
- Signal to Background [4]: 0.908
- AEB1 [13]: 0.132
- AEB2 [13]: 0.131
- Ave AEB [13]: 0.132
- Signal to Background [13]: 63.2
- AEB1 [14]: 0.0402
- AEB2 [14]: 0.0398
- Ave AEB [14]: 0.04
- Signal to Background [14]: 19.2
- AEB1 [5]: 0.0157
- AEB2 [5]: 0.0129
- Ave AEB [5]: 0.0143
- Signal to Background [5]: 4.29
- AEB1 [6]: 0.0227
- AEB2 [6]: 0.0226
- Ave AEB [6]: 0.0226
- Signal to Background [6]: 3.04
- AEB1 [7]: 0.15
- AEB2 [7]: 0.14
- Ave AEB [7]: 0.145
- Signal to Background [7]: 19.5
- AEB1 [15]: 0.293
- AEB2 [15]: 0.288
- Ave AEB [15]: 0.291
- Signal to Background [15]: 140
- AEB1 [16]: 0.0038
- AEB2 [16]: 0.004
- Ave AEB [16]: 0.0039
- Signal to Background [16]: 1.88
- AEB1 [8]: 0.009
- AEB2 [8]: 0.0091
- Ave AEB [8]: 0.009
- Signal to Background [8]: 1.21
- AEB1 [9]: 0.0086
- AEB2 [9]: 0.0101
- Ave AEB [9]: 0.0093
- Signal to Background [9]: 1.07
- AEB1 [10]: 0.0026
- AEB2 [10]: 0.0025
- Ave AEB [10]: 0.0025
- Signal to Background [10]: 0.765

Substance: anti-UBE3A antibody 3E5 (SAB1404508-100 ug, Millipore-Sigma)
- AEB1 [17]: 0.0082
- AEB2 [17]: 0.0092
- AEB3 [17]: 0.0096
- Average AEB [17]: 0.009
- Signal to Background [17]: 1.07
- AEB1 [18]: 0.514
- AEB2 [18]: 0.552
- Ave AEB [18]: 0.533
- Signal to Background [18]: 39.4
- AEB1 [11]: 0.144
- AEB2 [11]: 0.14
- Ave AEB [11]: 0.142
- Signal to Background [11]: 6.24
- AEB1 [12]: 0.031
- AEB2 [12]: 0.0329
- Ave AEB [12]: 0.0319
- Signal to Background [12]: 1.41
- AEB1 [19]: 0.0127
- AEB2 [19]: 0.0115
- Average AEB [19]: 0.0121
- Signal to Background [19]: 1.25
- AEB1 [13]: 2.26
- AEB2 [13]: 2.45
- Ave AEB [13]: 2.35
- Signal to Background [13]: 104
- AEB1 [14]: 0.361
- AEB2 [14]: 0.362
- Ave AEB [14]: 0.361
- Signal to Background [14]: 15.9
- AEB1 [15]: 4.3
- AEB2 [15]: 4.08
- Ave AEB [15]: 4.19
- Signal to Background [15]: 184
- AEB1 [16]: 0.0558
- AEB2 [16]: 0.0571
- Ave AEB [16]: 0.0564
- Signal to Background [16]: 2.48
- AEB1 [20]: 0.0402
- AEB2 [20]: 0.0395
- Average AEB [20]: 0.0399
- Signal to Background [20]: 6.95
- AEB1 [21]: 0.167
- AEB2 [21]: 0.166
- Average AEB [21]: 0.166
- Signal to Background [21]: 29
- AEB1 [22]: 0.0222
- AEB2 [22]: 0.0178
- Average AEB [22]: 0.02
- Signal to Background [22]: 1.02
